Results as given in paper doi:10.1101/2023.07.27.550818 (bioRxiv, 2023).

Biological target: the molecule itself
Assay: crystal structure

B1: PcaR (natural protein, P. putida, UniProt Q52154 1-291, looked up)
chain: MSDETLVNDPVNPEPARPASAAMAPPIVASPAKRIQAFTGDPDFMTSLARGLAVIQAFQERKRHLTIAQISHRTEIPRAAVRRCLHTLIKLGYATSDGRTYSLLPKVLTLGHAYLSSTPLAISAQPYLDRISDQLHEAANMATLEGDDILYIARSATVERLISVDLSVGGRLPAYCTSMGRILLAAMDDTSLREYLGRADLKARTSRTLHDPESLFACIQQVRAQGWCVVDQELEQGLRSIAVPIYDASGQVLAALNVSTHVGRVTRSELEQRFLPILLAASRDLCHQLFG
  binding result: binds
